# Laboratory results taken from the nanobody polyreactivity screen of Harvey et al. (2022).
# Test: yeast display, Sf9 membrane polyspecificity reagent, FACS + sequencing; frameworks hold sequencing errors
# Method in brief: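 Genes from sorted yeast were amplified by colony PCR, read by MiSeq 2 × 250 sequencing and filtered on CDR length. These cells carried a synthetic nanobody library in Saccharomyces cerevisiae BJ5465 and were sorted by FACS into low and high (top ~1%) gates on anti-HA and streptavidin fluorescence. Polyreactivity is labelled according to the gate of origin.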
row,Sequence,polyreactivity (PSR sort gate)
1,QVQLVESGGGLVQAGGSHRLSCAACGYIFFYNAMGWYRQAPGKERELVASITYRGGSTYYADSVKGRFTISRDNAKNSVYLQMNSLKPEDTAVYYCNVDGGGPLGPQGFPFDYWGQGTQVTVSS,low polyreactivity
2,QVQLVESGGGLVQAGGSHRLSCAASGFTFNKYAMGWYRQAPRKERELVAAISSSGGRTSYADSVKGRFTISRDNAKNTVYLQMNSVKPEDTAVYYCNKVSTADMGYWGQGTQVTVSS,high polyreactivity
3,QVQLVESGGGLVQAGGSHRLSCAASGFTIVQYAMGWYRQAPGKERELVARISRNGGSTYYADSVKGRFTISRDNAKNTVYLQMNSLKPEDTAVYYCNALRGPVKYYSWGQGTQVTVSS,low polyreactivity
4,QVQLVESGGGLVQAGGSHRLSCAASGGIAGNTMGWYRQAPGKERELVAAITRSGGRTYYADSVKGRFTISRDNAKNTVYLQMNSLKPEDTAVYYCAVTGLVRRRYGYWGQGTQVTVSS,high polyreactivity
5,QVQLVESGGGLVQAGGSHRLSCAASGGTYITNAMGWYRQAPGKERELVAAITSGGRTTYADSVKGRFTISRDNAKNTVYLQMNSLKPEDTAVYYCAADHVYSYTYNFDYWGQGTLVTVSS,low polyreactivity
6,QVQLVESGGGLVQAGGSHRLSCAASGITFARYAIGWSRQAPGKEREFLAAISWSGGNTYYADSVKGRFTISRDYAKNTVYLQLNSLKTEDTAVYYCAAESKGSWRYYYRFYYWGQGTQVTVSS,high polyreactivity
7,QVQLVESGGGLVQAGGSHRLSCAASGLIFNYYAMGGYRQAPGKERELVASITGGDSTNYADSVKGRFTISRDNAKNTVYLQMNSLKPEDTAVYYCAAEFYGSSYGYRTYDYYYWGQGTQVTVSS,low polyreactivity
8,QVQLVESGGGLVQAGGSHRLSCAASGLTFVDNAMGWYRQAPGKDRELVAANSYNGGSTYYADSVKGRFTISRDNAKNTVYLQLHRLKPEDTAVYYCAADISVGRYGDMDDWGQGTQVTVSS,low polyreactivity
9,QVQLVESGGGLVQAGGSHRLSCAASGRIFFPYDMGWYRQAPGKDRELVAAITNSGGRTYYADSVKGRFTISRDNAKNTVYLQMNSLKPEDSAVYYCAAEYVSAKWEYGYWGQGTQVTVSS,low polyreactivity
10,QVQLVESGGGLVQAGGSHRLSCAASGRIFKIYAMGWYRQAPGKERELVAAISRGGRTYYADSVKGRFTISRDNAMYTFYLLLNSLTPEDTAVYYCNLYAPDTYGINGYWGQGTQVSVSS,high polyreactivity
11,QVQLVESGGGLVQAGGSHRLSCAASGRIFRSYAMGWYRQAPGKERELVAAISDRGGSTYYADSVKGRFTISRDNAKKTVYVQMNRLKAEDTAVYSCNAPRGGRNTVYYWGQGTQVTVSS,high polyreactivity
12,QVQLVESGGGLVQAGGSHRLSCAASGRIFTYNAMGWYRQAPGKERELVAVITSGGSTYYADSVKGRFTISRDNAKNTVYLQMNSLKPEDTAVYYCNAVYFRYRYNYWGQGTQVTVSS,high polyreactivity
13,QVQLVESGGGLVQAGGSHRLSCAASGRIFTYYAMGWYRQAPGKQREFVAAITYRGGRTYYADSVKGRFTISRDNAKNTVYLQLNSLNPEDTAVYYCNVAPYGYWPRYYPWRELDYWGQGTQVTVSS,high polyreactivity
14,QVQLVESGGGLVQAGGSHRLSCAASGRILYGYAMGWYRQAPGQERELVASITWSGGSTYADSVKGRFTISRDNAKNTVYLQMKSLKPEDTAVYYCATRRGPKWQWLTYGYWGLGTQVTVSS,low polyreactivity
15,QVQLVESGGGLVQAGGSHRLSCAASGRTFGYNAMGWYRQAPGKERELVAAISRSGGRTYYADSVKGRFTISRDNAKNTVYLHMNRLKPEDTAVYYCAAESYHRGYDYWGQGTQVTVSS,high polyreactivity
16,QVQLVESGGGLVQAGGSHRLSCAASGRTFRPYAMGWYRQAPGKERELVAAITGGTRKYYADSVKGRFTISRDNAKNSVYLQMNSLKPEVTAVYSCAKGDFFSKHDYRGQGTQVTVSS,low polyreactivity
17,QVQLVESGGGLVQAGGSHRLSCAASGRTFSTYSMGWYRQAPGKERELVAAISSGGGRTYYADSVKGRFTISRDIAKNTVYLQINSLKPEDTAVYDGAADRYFRSRRSYEYWGQGTQVTVSS,low polyreactivity
18,QVQLVESGGGLVQAGGSHRLSCAASGRTFVFYAMGWYRPAPGKERELVAAISRSGGSTYYADSVKGRFTISRDNAKNTVFLQMNSLKPEDTAVSYCNARYTGSGGYWGQGTQVTVSS,high polyreactivity
19,QVQLVESGGGLVQAGGSHRLSCAASGRTFYAYAMGWYRQAPGKERELVAANRYSGGRTYYADSVKGRFTISRDNAKNTVYLQMNSLKPEDTGVYYCAREWSRGSYVDYDYWGQGTQVTVSS,high polyreactivity
20,QVQLVESGGGLVQAGGSHRLSCAASGRTFYFYTMGWYRPAPGKESELVATIRWSAGSTYYADSVKGRFTISRDNAKNTVYLQMNSLKPEDTAVYYCNADPYVYSSWEYGYWGLGTQVTVSS,high polyreactivity
21,QVQLVESGGGLVQAGGSHRLSCAASGSIFYDNAMGWYRQAPGKERELVAVITVSGDSTYYADSVKGRFTISRDNAKNTVYLQMNSLKPEDTAVYYCNTDAISGSHFWRYITFGYLDDYWGQGTQVTVSS,low polyreactivity
22,QVQLVESGGGLVQAGGSHRLSCAASGSTFRVYAMGWYRQAPGKERELVATISWGGGRTYYADSVKGRFTISRDNAKNTVYLQMNSLKPEDTAVYYCAADQRWTTDQPTAGDYWGQGTQVTVSS,low polyreactivity

row,Sequence,polyreactivity (PSR sort gate)
1,QVQLVESGGGLVQAGGSHRLSCAASGSTFTYNAMGWYRQAPGKERELVASISSGTTTYYADSVKGRFTISRDNAKNTVYLQMNSLIPEDTAVYDCAVDSWSRVQGWLAHNYDYWGQGTQVTVSS,low polyreactivity
2,QVQLVESGGGLVQAGGSHRLSCAASGSTFVPYTMGWYRQAPGKERELVAAISGSGGTDYADSVKGRFTISRDNAKNTVYLQMNSLKPEDTAVYYCATDGLDFWFIYDYWGQGTQVTVST,low polyreactivity
3,QVQLVESGGGLVQAGGSHRLSCAASGSTFVRNAMGWYRPAPAKERGLVAGISTSGGRTYYADSVKGRFTISRDNAKNTVYLQMNSLKPEDTAVYDCAVLAWRSIAYDKYDYWGQGTQVTVSS,high polyreactivity
4,QVQLVESGGGLVQAGGSHRLSCAASGSTLSVNAMGWYRQAPGKERELGAAIDFDGGDTYYADSVKGRFTLSRDNAKNTVYLQMNSLKPEDTAVYSCNAALRWKYDWVQGTQVTVSS,low polyreactivity
5,QVQLVESGGGLVQAGGSHRLSCAASGYIFGYNAMGWYRQAPGKEREFVAAIRFSGGSTYYADSVKGRFTISRDNAKNTVYLQMNSMKPEDTAVYYCAKRGYGHLIPIAYEYWGQGTQVTVSS,low polyreactivity
6,QVQLVESGGGLVQAGGSHRLSCASYGLIFESYVMGWDRQAPGKERELVAAIRSSGGSTYYADSVKGRFTISRDNAKNTVYLQMNCLNPEDTAVYYCAANYYYYLTISWWYAYDYWGQGTQVTVSS,low polyreactivity
7,QVQLVESGGGLVQAGGSHRLSCDASGYIFRRYAMGWYRQAPGKERELVAAISWRGGSTYYADSVKGRFTISRDNAKNTVYLQMNSLKPEDSAVYYCAKVVPGAGHLDEYWGQGTQVTVSS,high polyreactivity
8,QVQLVESGGGLVQAGGSHRLSFAASGSIFTRYAMGWYRPAHGKEREFVAGISWTGGSTYYADSVKGRFTISRDIAKNTVYLQMYRLKPEDTGVYYCAAGYWYSAFSGWWDYSDLYYWGQGTQVTVSS,high polyreactivity
9,QVQLVESGGGLVQAGGSHRLSSAASGSILADNAMGWYRQAPGKERELVAAISLRGGRTYYADSVKGGFTISRDNAKNTVYLQMNSLKPEDTAVYYCAAVGSFHIVDYWGEGTQVTVSS,high polyreactivity
10,QVQLVESGGGLVQAGGSIGLNCAASVSSYEPYVMGWYRQATGKEMELVGAIYESGDTTYYADSVKGRFTISRDNAKNTVYLQMNSLKPEDSAVYYCNAEDPSIYGWWRVGEYDYWGQGTQVTVSS,low polyreactivity
11,QVQLVESGGGLVQAGGSIRLSCAASGFTIFLNAMGWYRQAPGKERELVAAITVSGSSTYYADSVKGRFTISRDNAKNTVYLQMNSLKPEETAVYYCNAEIYSPYYTYDYWGQGTQVTVSS,low polyreactivity
12,QVQLVESGGGLVQAGGSIRLSCAASGGTFSAYAMGWYRQAPGKERELVAAINISGGRTYYADSVKGRFTISRDNAKNTVYLQMNSLKPEDTAVYYCAAKNFRDRGNDYWGQGTQVTVSS,high polyreactivity
13,QVQLVESGGGLVQAGGSIRLSCAASGITFAWNAMGWYRQAPGKERELVAAITKRGGSTYYADSVKGRFTISRDNAKNTVYLQMNSLKPEYTAFYYCAARGYISRYDARANAVQGNYWGQGTQVTVSS,high polyreactivity
14,QVQLVESGGGLVQAGGSIRLSCAASGRIFYAYTMGWYRQAPVKERELVAAIRRRGTTYYADSVKGRFTISRDNAKNTVYLQMNSLKPDDTAVYYCAKDALGYRTSSALLGDYWGQGTQVTVSS,high polyreactivity
15,QVQLVESGGGLVQAGGSIRLSCAASGRTFDSNAIGWYRQAAGKEWQLVAAISCSGDTTYDADTVKGRFTISRDNAKNTVYLQINILKPEDTAVYYCAADHDSYDSGYDYWGQGTQGTVSS,low polyreactivity
16,QVQLVESGGGLVQAGGSIRLSCAASGRTFPAYAMGWYRQAPGKERELVAAISYSGGRTRYADSVKGRFTISRDNAKYTVYLQMNSLKPEDTAVYYCNRVIPTQSLRDYYWGQGTQVTVSS,high polyreactivity
17,QVQLVESGGGLVQAGGSIRLSCAASGRTFYGYAMGRYRQAPGKEREFDAAISVGGVSTYYADSVKGRFTISRDNAKNTVYLQMNSLKPEDTAVYYCAAYTRYWSYGYWGQGTQVTVSS,high polyreactivity
18,QVQLVESGGGLVQAGGSIRLSCAASGSIFYYGLGWYRQAPGKERELVAAITRGGSTYYADSVKGRFTISRDNAKNTVYLQMNSLKPEDTAVYYCAKYPVGGYDYWGQGTQVTVSS,low polyreactivity
19,QVQLVESGGGLVQAGGSIRLSCAASGSLFEPYFMGWYRQAPGKERELVAAIRQTGGSTYYADSVKGRFTISRDTAKNTVYLQMNSLKPEDTAVYYCAKDSQTARDFDYWGQGTQGTVSS,low polyreactivity
20,QVQLVESGGGLVQAGGSIRLSCAASGSTFRYYTMGWYRQAPGKERELVATITRDGRTYYADSVKGRFTISRDNAKNTVYLQMYSLKPEDTAVYYCNVRRAFSGWRGYDYWGQGTQVTVSS,high polyreactivity
21,QVQLVESGGGLVQAGGSIRLSCAASGYTFVTNAMGWYRPAPGKERELVAAITTVGSTNYADSGKGRFTISRDNAKNTVYLQMNSLKPEDTAVYYCNANWYEWYGWGQGTQVTVSS,low polyreactivity
